Assay results from patent US20240139239A1.

Biological target: OVA peptide 323-339 presented on MHC-II molecules (Gallus gallus (Chicken)) (UniProt P01012)

proliferation (CTVlow) of OT-II CD4+ T cells after 5 days of co-culture with peptide-loaded PIP-induced cells: 10.7%
Sequence: T cell receptor of OT-II CD4+ T cells, specific for ovalbumin (OVA) peptide presented in the context of MHC-II molecules (TCR)
